# US20190112392A1
# Target: soluble recombinant cynomolgus TCR alpha/beta-zipper protein (cynomolgus/rhesus monkey)
# Test: ELISA, 2 µg/mL coated soluble recombinant cynomolgus TCR α/β-zipper protein, OD 450 nm
# soluble recombinant cynomolgus TCR alpha/beta-zipper protein (cynomolgus/rhesus monkey), sequence (TCR alpha, as listed by the source, chain 1 of 2): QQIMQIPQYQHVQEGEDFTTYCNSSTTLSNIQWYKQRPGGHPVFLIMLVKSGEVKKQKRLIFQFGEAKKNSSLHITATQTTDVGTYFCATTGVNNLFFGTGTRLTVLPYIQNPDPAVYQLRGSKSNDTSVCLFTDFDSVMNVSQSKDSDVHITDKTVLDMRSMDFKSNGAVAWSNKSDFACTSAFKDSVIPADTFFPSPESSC
# soluble recombinant cynomolgus TCR alpha/beta-zipper protein (cynomolgus/rhesus monkey), sequence (TCR beta, as listed by the source, chain 2 of 2): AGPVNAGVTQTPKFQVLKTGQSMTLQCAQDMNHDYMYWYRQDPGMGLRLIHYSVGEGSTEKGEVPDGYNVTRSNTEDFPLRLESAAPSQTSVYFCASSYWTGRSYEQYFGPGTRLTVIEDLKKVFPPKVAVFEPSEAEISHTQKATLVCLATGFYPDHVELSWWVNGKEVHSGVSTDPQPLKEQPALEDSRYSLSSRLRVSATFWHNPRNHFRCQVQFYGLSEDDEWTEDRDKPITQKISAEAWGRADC
substance,measurement,value
anti-non-human primate/Rat TCRα/β antibody clone R73,EC50 (read off the curve),0.1 nM
